Measured values reported in patent publication US20210340217A1, “NOVEL PEPTIDES AND COMBINATION OF PEPTIDES FOR USE IN IMMUNOTHERAPY AGAINST OVARIAN CANCER AND OTHER CANCERS” (Immatics Biotechnologies GmbH, priority 2017, published 2021).

Columns and labels:
HLA-A*02:01 = HLA-A*02:01 (Homo sapiens, UniProt P04439, D140Y/D185E/D98H/E176V/E277Q/G131W/G231S/I119V/I121R/I166T/I218V/L300P/L318F/N151K/N90K/P208A/P217A/Q86G/Q94H/R138H/R169H/T345S); experiment: MHC binding assay (UV-ligand exchange, beta2m ELISA); settings: peptide exchange yield
Method in brief: (§1)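 Peptide–MHC complexes formed by UV-induced exchange of a UV-cleavable peptide for the test peptide. Exchange yield measured by streptavidin-capture ELISA detecting β2m (HRP anti-β2m, TMB, A450) on 100-fold diluted samples. Quantified against refolded HLA-A*02:01/MLA-001 standards (15-500 ng/ml).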

HLA-A*03:01 = HLA-A*03:01 (Homo sapiens, UniProt P04439); experiment: as above; settings: peptide exchange yield
Method in brief: as §1

Row | Peptide exchange (HLA-A*02:01) | Peptide exchange (HLA-A*03:01) | Substance
1 | +++ (>50 = +++) | – | 1 (MIPTFTALL; listed as Homo sapiens) [compound 1]
2 | ++++ (>75% = ++++) | – | 2 (TLLKALLEI; listed as Homo sapiens) [compound 2]
3 | ++++ (>75% = ++++) | – | 3 (ALIYNLVGI; listed as Homo sapiens) [compound 3]
4 | ++++ (>75% = ++++) | – | 4 (ALFKAWAL; listed as Homo sapiens) [compound 4]
5 | ++++ (>75% = ++++) | – | 5 (RLLDFINVL; listed as Homo sapiens) [compound 5]
6 | +++ (>50 = +++) | – | 6 (SLGKHTVAL; listed as Homo sapiens) [compound 6]
7 | ++++ (>75% = ++++) | – | 7 (ALQAFEFRV; listed as Homo sapiens) [compound 7]
8 | ++++ (>75% = ++++) | – | 8 (YLVTKVVAV; listed as Homo sapiens) [compound 8]
9 | + (>10% = +) | – | 9 (VLLAGFKPPL; listed as Homo sapiens) [compound 9]
10 | ++++ (>75% = ++++) | – | 60 (GLLSLTSTLYL; listed as Homo sapiens) [compound 60]
11 | ++++ (>75% = ++++) | – | 61 (YMVHIQVTL; listed as Homo sapiens) [compound 61]
12 | ++++ (>75% = ++++) | – | 62 (KVLGVNVML; listed as Homo sapiens) [compound 62]
13 | ++++ (>75% = ++++) | – | 63 (MMEEMIFNL; listed as Homo sapiens) [compound 63]
14 | ++++ (>75% = ++++) | – | 64 (FLDPDRHFL; listed as Homo sapiens) [compound 64]
15 | ++++ (>75% = ++++) | – | 66 (GLLQELSSI; listed as Homo sapiens) [compound 66]
16 | ++++ (>75% = ++++) | – | 67 (SLLLPSIFL; listed as Homo sapiens) [compound 67]
17 | ++++ (>75% = ++++) | – | 68 (KLFDTQQFL; listed as Homo sapiens) [compound 68]
18 | ++++ (>75% = ++++) | – | 69 (TTYEGSITV; listed as Homo sapiens) [compound 69]
19 | ++++ (>75% = ++++) | – | 70 (VLQGLLRSL; listed as Homo sapiens) [compound 70]
20 | ++++ (>75% = ++++) | – | 71 (YLEDTDRNL; listed as Homo sapiens) [compound 71]
21 | ++++ (>75% = ++++) | – | 72 (YLTDLQVSL; listed as Homo sapiens) [compound 72]
22 | ++++ (>75% = ++++) | – | 73 (FLIEELLFA; listed as Homo sapiens) [compound 73]
23 | ++++ (>75% = ++++) | – | 75 (KVVSVLYNV; listed as Homo sapiens) [compound 75]
24 | – | +++ (>50 = +++) | 100 (RLFTSPIMTK; listed as Homo sapiens) [compound 100]
25 | – | ++ (>20% = ++) | 101 (RVFTSSIKTK; listed as Homo sapiens) [compound 101]
26 | – | ++ (>20% = ++) | 102 (SVLTSSLVK; listed as Homo sapiens) [compound 102]
27 | – | ++ (>20% = ++) | 104 (VLADSVTTK; listed as Homo sapiens) [compound 104]

Row | Peptide exchange (HLA-A*02:01) | Peptide exchange (HLA-A*03:01) | Substance
28 | – | +++ (>50 = +++) | 105 (RLFSWLVNR; listed as Homo sapiens) [compound 105]
29 | – | ++ (>20% = ++) | 106 (AAFVPLLLK; listed as Homo sapiens) [compound 106]
30 | – | +++ (>50 = +++) | 107 (RLQEWKALK; listed as Homo sapiens) [compound 107]
31 | – | ++ (>20% = ++) | 109 (KTFTIKRFLAK; listed as Homo sapiens) [compound 109]
32 | – | ++ (>20% = ++) | 110 (SAAPPSYFR; listed as Homo sapiens) [compound 110]
33 | ++++ (>75% = ++++) | – | 216 (IMFDDAIERA; listed as Homo sapiens) [compound 216]
34 | + (>10% = +) | – | 217 (VSSSLTLKV; listed as Homo sapiens) [compound 217]
35 | + (>10% = +) | – | 219 (PLPRPGAVL; listed as Homo sapiens) [compound 219]
36 | +++ (>50 = +++) | – | 220 (RMTTQLLLL; listed as Homo sapiens) [compound 220]
37 | ++ (>20% = ++) | – | 221 (SLLDLYQL; listed as Homo sapiens) [compound 221]
38 | ++++ (>75% = ++++) | – | 222 (ALMRLIGCPL; listed as Homo sapiens) [compound 222]
39 | + (>10% = +) | – | 223 (FAHHGRSL; listed as Homo sapiens) [compound 223]
40 | ++++ (>75% = ++++) | – | 224 (SLPRFQVTL; listed as Homo sapiens) [compound 224]
41 | +++ (>50 = +++) | – | 225 (SVFAHPRKL; listed as Homo sapiens) [compound 225]
42 | +++ (>50 = +++) | – | 227 (YTFRYPLSL; listed as Homo sapiens) [compound 227]
43 | ++++ (>75% = ++++) | – | 228 (RLWDWVPLA; listed as Homo sapiens) [compound 228]
44 | + (>10% = +) | – | 229 (ISVPAKTSL; listed as Homo sapiens) [compound 229]
45 | +++ (>50 = +++) | – | 231 (SVTESTHHL; listed as Homo sapiens) [compound 231]
46 | ++++ (>75% = ++++) | – | 232 (TISSLTHEL; listed as Homo sapiens) [compound 232]
47 | ++ (>20% = ++) | – | 234 (GVATRVDAI; listed as Homo sapiens) [compound 234]
48 | +++ (>50 = +++) | – | 236 (SAIPFSMTL; listed as Homo sapiens) [compound 236]
49 | ++ (>20% = ++) | – | 241 (RQPNILVHL; listed as Homo sapiens) [compound 241]
50 | – | ++ (>20% = ++) | 256 (RTEEVLLTFK; listed as Homo sapiens) [compound 256]
51 | – | + (>10% = +) | 257 (VTADHSHVF; listed as Homo sapiens) [compound 257]
52 | – | +++ (>50 = +++) | 258 (GAYAHTVNR; listed as Homo sapiens) [compound 258]
53 | – | ++ (>20% = ++) | 259 (KTLELRVAY; listed as Homo sapiens) [compound 259]
54 | – | +++ (>50 = +++) | 260 (GTNTVILEY; listed as Homo sapiens) [compound 260]

Row | Peptide exchange (HLA-A*02:01) | Peptide exchange (HLA-A*03:01) | Substance
55 | – | ++ (>20% = ++) | 261 (HTFGLFYQR; listed as Homo sapiens) [compound 261]
56 | – | ++ (>20% = ++) | 262 (RSRLNPLVQR; listed as Homo sapiens) [compound 262]
57 | – | ++ (>20% = ++) | 263 (SSSSATISK; listed as Homo sapiens) [compound 263]
58 | – | ++ (>20% = ++) | 264 (AIKVIPTVFK; listed as Homo sapiens) [compound 264]
59 | – | ++ (>20% = ++) | 265 (QIHDHVNPK; listed as Homo sapiens) [compound 265]
60 | – | +++ (>50 = +++) | 266 (ISYSGQFLVK; listed as Homo sapiens) [compound 266]
61 | – | ++ (>20% = ++) | 267 (VTDLISPRK; listed as Homo sapiens) [compound 267]
62 | – | +++ (>50 = +++) | 269 (RLKGDAWVYK; listed as Homo sapiens) [compound 269]
63 | – | ++ (>20% = ++) | 270 (AVFNPRFYRTY; listed as Homo sapiens) [compound 270]
64 | – | +++ (>50 = +++) | 271 (RMFADDLHNLNK; listed as Homo sapiens) [compound 271]
65 | – | ++ (>20% = ++) | 272 (RQPERTILRPR; listed as Homo sapiens) [compound 272]
66 | – | +++ (>50 = +++) | 273 (RVNAIPFTY; listed as Homo sapiens) [compound 273]
67 | – | + (>10% = +) | 274 (KTFPASTVF; listed as Homo sapiens) [compound 274]
68 | – | ++ (>20% = ++) | 275 (STTFPTLTK; listed as Homo sapiens) [compound 275]
69 | – | + (>10% = +) | 276 (VSKTTGMEF; listed as Homo sapiens) [compound 276]
70 | – | + (>10% = +) | 277 (TTALKTTSR; listed as Homo sapiens) [compound 277]
71 | – | ++ (>20% = ++) | 278 (NLSSITHER; listed as Homo sapiens) [compound 278]
72 | – | ++ (>20% = ++) | 279 (SVSSETTKIKR; listed as Homo sapiens) [compound 279]
73 | – | ++ (>20% = ++) | 280 (SVSGVKTTF; listed as Homo sapiens) [compound 280]
74 | – | + (>10% = +) | 281 (RAKELEATF; listed as Homo sapiens) [compound 281]
75 | – | ++ (>20% = ++) | 283 (IVQEPTEEK; listed as Homo sapiens) [compound 283]
76 | – | ++ (>20% = ++) | 284 (KSLIKSWKK; listed as Homo sapiens) [compound 284]
77 | – | ++ (>20% = ++) | 285 (GTVNPTVGK; listed as Homo sapiens) [compound 285]
78 | – | ++ (>20% = ++) | 286 (TVAPPQGVVK; listed as Homo sapiens) [compound 286]
79 | – | ++ (>20% = ++) | 287 (RRIHTGEKPYK; listed as Homo sapiens) [compound 287]
